Measurements reported in US20240374644A1.

Target: CD8 on peripheral blood mononuclear cells (human)
Assay: flow cytometry on PBMCs, anti-GST antibody

CD8 on peripheral blood mononuclear cells (human), sequence (P01732 22-235, chain 1 of 2): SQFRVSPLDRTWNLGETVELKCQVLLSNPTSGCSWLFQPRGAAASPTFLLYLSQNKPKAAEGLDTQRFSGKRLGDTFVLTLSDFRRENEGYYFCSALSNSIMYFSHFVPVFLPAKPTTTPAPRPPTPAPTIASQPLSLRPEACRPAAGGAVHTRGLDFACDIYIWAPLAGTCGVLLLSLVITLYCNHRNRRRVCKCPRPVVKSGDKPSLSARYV
CD8 on peripheral blood mononuclear cells (human), sequence (P10966 22-210, chain 2 of 2, further chain): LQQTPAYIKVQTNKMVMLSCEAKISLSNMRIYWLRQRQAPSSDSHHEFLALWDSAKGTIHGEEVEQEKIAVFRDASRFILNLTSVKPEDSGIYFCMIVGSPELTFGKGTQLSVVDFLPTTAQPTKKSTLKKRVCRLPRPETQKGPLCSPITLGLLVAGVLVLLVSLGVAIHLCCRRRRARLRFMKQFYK

How did the percentage of peripheral blood mononuclear cells positive (anti-GST) turn out when “CD8 BiTE (K8Bi), anti-HERV-K 6H5 scFv linked to anti-CD8 (OKT8) scFv (bispecific antibody)” was run?
The percentage of peripheral blood mononuclear cells positive (anti-GST) was 48.8 to 55.2%.
